Results published in patent US20150030560A1.

Key:
[1] = biological target: Detergent-soluble HLA-DR1 purified from LG-2 cells (DRB1*0101) (human)
[2] = biological target: Detergent-soluble HLA-DR2 purified from MGAR cells (DRB1*1501) (human)
[3] = biological target: Detergent-soluble HLA-DR4 purified from Priess cells (DRB1*0401) (human)

Row | Kd [1] | Substance | IC50 [1] | IC50 [2] | Kd [2] | IC50 [3] | Kd [3]
1 | 74 nM | Copolymer 1 (peptide) | 8.8 µM | 10.1 µM | 82 nM | 10.8 µM | 15 nM
2 | – | TAL terpolymer (SD-1691), poly[L-Tyr 0.102, L-Ala 0.542, L-Lys 0.353] (peptide) | 3.3 µM | 2.7 µM | 17 nM | – | –
3 | 4 nM | GTL terpolymer (SD-1697), poly[L-Tyr 0.162, L-Glu 0.259, L-Lys 0.579] (peptide) | 43 µM | 25.4 µM | – | 43 µM | 8 nM
4 | – | GAL terpolymer (SD-1689), poly[L-Glu 0.153, L-Ala 0.479, L-Lys 0.365] (peptide) | < 1000 µM | < 1000 µM | 17 nM | < 1000 µM | 3 nM

Row | Substance | Kd [1] | IC50 [1] | IC50 [2] | Kd [2] | IC50 [3] | Kd [3]
5 | TGA terpolymer (SD-1690), poly[L-Tyr 0.136, L-Glu 0.21, L-Ala 0.648] (peptide) | 10 nM | 1.3 µM | 9.5 µM | 8 nM | 1 µM | 8 nM
